Reference: publication PMC5668897 (Biochemistry and Biophysics Reports, 2015)

Biological target: the molecule itself
Assay: SEC

B1: regulatory subunit of Thermotoga maritima acetohydroxyacid synthase (TmAHAS), TM0549 (natural protein)
chain: MTDQIREHLVSMLVHNKPGVMRKVANLFARRGFNISSITVGESETPGLSRLVIMVKGDDKTIEQIEKQAYKLVEVVKVTPIDPLPENRVEREMALIKVRFDEDKQEIFQLVEIFRGKIIDVSREGAIIEITGARSKVEAFINLLPQKQVEEIARTGIVAMNRWNVKEGEGF
  stoichiometry N: 2
